From patent US20140086935A1 (Bayer, published 2014) come the findings set out here.

Numbering of substitutions follows the chain as printed.

The labels stand for the following.
B1: MS-BW-9 (Fab, V domains shown)
VH: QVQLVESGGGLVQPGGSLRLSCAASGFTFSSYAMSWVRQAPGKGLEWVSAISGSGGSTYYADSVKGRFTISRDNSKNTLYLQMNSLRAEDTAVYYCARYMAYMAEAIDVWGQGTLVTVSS
VL: DIVLTQPPSVSGAPGQRVTISCSGSSSNIGSNYVSWYQQLPGTAPKLLIYDNNQRPSGVPDRFSGSKSGTSASLAITGLQSEDEADYYCQSYDGFKTHVFGGGTKLTVLG
notes: Fab, FLAG + Strep-tag II; not tied by name
B2: MS-BW-62 (Fab, V domains shown)
VH: QVQLVQSGAEVKKPGESLKISCKGSGYSFTSYWIGWVRQMPGKGLEWMGIIYPGDSDTRYSPSFQGQVTISADKSISTAYLQWSSLKASDTAMYYCARLFTYPFLYFDVWGQGTLVTVSS
VL: DIALTQPASVSGSPGQSITISCTGTSSDVGGYNYVSWYQQHPGKAPKLMIYDVSNRPSGVSNRFSGSKSGNTASLTISGLQAEDEADYYCQSDFPVMVFGGGTKLTVLG
notes: as for B1
B3: MS-BW-63 (Fab, V domains shown)
VH: B2 VH with L99I, F100L, Y102G, P103H, F104V, Y106L, V109Y
VL: B2 VL with F94N, V96Y, M97L
notes: as for B1
B4: MS-BW-24 (Fab, V domains shown)
VH: B2 VH with L99Y, F100Y, T101V, Y102T, P103D, F104T, L105A, V109Y
VL: B2 VL with F94L, P95Y, V96F, M97P
notes: as for B1
B5: MS-BW-12 (Fab, V domains shown)
VH: QVQLQQSGPGLVKPSQTLSLTCAISGDSVSSNSAAWNWIRQSPGRGLEWLGRTYYRSKWYNDYAVSVKSRITINPDTSKNQFSLQLNSVTPEDTAVYYCARGYADISFDYWGQGTLVTVSS
VL: DIALTQPASVSGSPGQSITISCTGTSSDVGGYNYVSWYQQHPGKAPKLMIYDVSNRPSGVSNRFSGSKSGNTASLTISGLQAEDEADYYCQSYDMIARYPVFGGGTKLTVLG
notes: as for B1
B6: MS-BW-23 (Fab, V domains shown)
VH: QVQLVQSGAEVKKPGASVKVSCKASGYTFTSYYMHWVRQAPGQGLEWMGWINPNSGGTNYAQKFQGRVTMTRDTSISTAYMELSSLRSEDTAVYYCARIMWSDYGQLVKGGDIWGQGTLVTVSS
VL: B5 VL with M95V, I96F, A97P, R98I, Y99N, P100R
notes: as for B1
B7: MS-BW-22 (Fab, V domains shown)
VH: QVQLVQSGAEVKKPGESLKISCKGSGYSFTSYWIGWVRQMPGKGLEWMGIIYPGDSDTRYSPSFQGQVTISADKSISTAYLQWSSLKASDTAMYYCARFRAYGDDFYFDVWGQGTLVTVSS
VL: B5 VL with Y93W, M95N, I96L, A97K, R98M, Y99P, P100V
notes: as for B1
B8: MS-BW-32 (Fab, V domains shown)
VH: QVQLVQSGAEVKKPGSSVKVSCKASGGTFSSYAISWVRQAPGQGLEWMGGIIPIFGTANYAQKFQGRVTITADESTSTAYMELSSLRSEDTAVYYCARTKYVGSEDVWGQGTLVTVSS
VL: B5 VL with M95F, I96S, A97H, R98Y, Y99F, P100F
notes: as for B1
B9: MS-BW-10 (Fab, V domains shown)
VH: QVQLVQSGAEVKKPGASVKVSCKASGYTFTSYYMHWVRQAPGQGLEWMGWINPNSGGTNYAQKFQGRVTMTRDTSISTAYMELSSLRSEDTAVYYCARLVGIVGYKPDELLYFDVWGQGTLVTVSS
VL: DIELTQPPSVSVAPGQTARISCSGDALGDKYASWYQQKPGQAPVLVIYDDSDRPSGIPERFSGSNSGNTATLTISGTQAEDEADYYCQSYDYSLLVFGGGTKLTVLG
notes: as for B1
B10: MS-BW-11 (Fab, V domains shown)
VH: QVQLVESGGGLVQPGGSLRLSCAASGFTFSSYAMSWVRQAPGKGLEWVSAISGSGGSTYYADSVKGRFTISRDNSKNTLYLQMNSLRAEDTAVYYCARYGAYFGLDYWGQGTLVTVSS
VL: B9 VL with Y92F, S93N, L94F, L95H
notes: as for B1
B11: MS-BW-15 (Fab, V domains shown)
VH: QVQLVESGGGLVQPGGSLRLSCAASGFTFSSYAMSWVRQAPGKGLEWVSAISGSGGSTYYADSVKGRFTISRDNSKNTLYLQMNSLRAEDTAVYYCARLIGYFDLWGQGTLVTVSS
VL: DIALTQPASVSGSPGQSITISCTGTSSDVGGYNYVSWYQQHPGKAPKLMIYDVSNRPSGVSNRFSGSKSGNTASLTISGLQAEDEADYYCQSYDVLDSEVFGGGTKLTVLG
notes: as for B1
B12: MS-BW-20 (Fab, V domains shown)
VH: QVQLVQSGAEVKKPGSSVKVSCKASGGTFSSYAISWVRQAPGQGLEWMGGIIPIFGTANYAQKFQGRVTITADESTSTAYMELSSLRSEDTAVYYCARSGYLDYWGQGTLVTVSS
VL: B11 VL with V95Y, L96Y, S98Y, E99G
notes: as for B1
B13: MS-BW-19 (Fab, V domains shown)
VH: QVQLVQSGAEVKKPGESLKISCKGSGYSFTSYWIGWVRQMPGKGLEWMGIIYPGDSDTRYSPSFQGQVTISADKSISTAYLQWSSLKASDTAMYYCARYVTYGYDDYHFDYWGQGTLVTVSS
VL: B11 VL with Y93W, V95I, L96N, D97H, S98A, E99I
notes: as for B1
B14: MS-BW-36 (Fab, V domains shown)
VH: QVQLVQSGAEVKKPGESLKISCKGSGYSFTSYWIGWVRQMPGKGLEWMGIIYPGDSDTRYSPSFQGQVTISADKSISTAYLQWSSLKASDTAMYYCARYRYPHMFDFWGQGTLVTVSS
VL: DIELTQPPSVSVAPGQTARISCSGDALGDKYASWYQQKPGQAPVLVIYDDSDRPSGIPERFSGSNSGNTATLTISGTQAEDEADYYCQSYDLRYSHVFGGGTKLTVLG
notes: as for B1
B15: MS-BW-18 (Fab, V domains shown)
VH: B7 VH with F99L, R100V, A101G, Y102G, D104Y, F106L, Y107M, V110S
VL: DIALTQPASVSGSPGQSITISCTGTSSDVGGYNYVSWYQQHPGKAPKLMIYDVSNRPSGVSNRFSGSKSGNTASLTISGLQAEDEADYYCQSYDDMQFVFGGGTKLTVLG
notes: as for B1
B16: MS-BW-31 (Fab, V domains shown)
VH: B2 VH with F100Y, T101A, Y102D, P103A, F104D, L105I, V109Y
VL: B15 VL with D95L, M96S, Q97P, F98R
notes: as for B1
B17: MS-BW-30 (Fab, V domains shown)
VH: B7 VH with F99Y, R100A, A101G, Y102H, G103Q, D104Y, D105E, Y107F, V110F
VL: B14 VL with Y90R, L92P, R93V, Y94G, S95F, H96P
notes: as for B1
B18: MS-BW-37 (Fab, V domains shown)
VH: B2 VH with T101A, Y102G, P103L, F104E, V109Y
VL: B15 VL with D95L, M96R, Q97N, F98R
notes: as for B1
B19: MS-BW-29 (Fab, V domains shown)
VH: B2 VH with L99H, F100D, T101F, Y102D, P103G, F104S, L105I, Y106F, F107M, V109F
VL: B15 VL with D95V, M96T, Q97P, F98R
notes: as for B1
B20: MS-BW-6 (Fab, V domains shown)
VH: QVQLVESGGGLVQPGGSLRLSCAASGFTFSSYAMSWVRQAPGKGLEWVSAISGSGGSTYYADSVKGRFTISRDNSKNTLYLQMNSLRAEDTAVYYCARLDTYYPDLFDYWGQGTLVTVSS
VL: DIVLTQPPSVSGAPGQRVTISCSGSSSNIGSNYVSWYQQLPGTAPKLLIYDNNQRPSGVPDRFSGSKSGTSASLAITGLQSEDEADYYCQSYDQRKWVFGGGTKLTVLG
notes: as for B1
B21: MS-BW-7 (Fab, V domains shown)
VH: QVQLVQSGAEVKKPGSSVKVSCKASGGTFSSYAISWVRQAPGQGLEWMGGIIPIFGTANYAQKFQGRVTITADESTSTAYMELSSLRSEDTAVYYCARTYYYFDSWGQGTLVTVSS
VL: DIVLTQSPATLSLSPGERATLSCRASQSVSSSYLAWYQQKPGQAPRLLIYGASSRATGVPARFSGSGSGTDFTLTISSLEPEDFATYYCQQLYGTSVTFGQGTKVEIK
B22: MS-BW-5 (Fab, V domains shown)
VH: QVQLVQSGAEVKKPGSSVKVSCKASGGTFSSYAISWVRQAPGQGLEWMGGIIPIFGTANYAQKFQGRVTITADESTSTAYMELSSLRSEDTAVYYCARGLYWAVYPYFDFWGQGTLVTVSS
VL: B1 VL with Y92R, G94F, F95N, K96R, T97G, H98P
notes: as for B1
B23: MS-BW-58 (Fab, V domains shown)
VH: QVQLQQSGPGLVKPSQTLSLTCAISGDSVSSNSAAWNWIRQSPGRGLEWLGRTYYRSKWYNDYAVSVKSRITINPDTSKNQFSLQLNSVTPEDTAVYYCARWMTPPGHYYGYTFDVWGQGTLVTVSS
VL: B14 VL with Y90W, L92P, R93S, Y94H, S95Y, H96Y
notes: as for B1
B24: MS-BW-13 (Fab, V domains shown)
VH: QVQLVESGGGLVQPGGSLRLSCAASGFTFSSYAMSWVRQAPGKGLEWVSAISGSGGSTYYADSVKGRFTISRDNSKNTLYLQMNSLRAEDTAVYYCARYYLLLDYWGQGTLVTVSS
VL: DIELTQPPSVSVAPGQTARISCSGDALGDKYASWYQQKPGQAPVLVIYDDSDRPSGIPERFSGSNSGNTATLTISGTQAEDEADYYCQSWDIHPFDVVFGGGTKLTVLG
notes: as for B1

The target of one assay is T1, rat TIMP-1 (rat, UniProt P30120 24-217). Nature of the assay: cell-based or functional assay.
T1 sequence (P30120 24-217 limits assumed): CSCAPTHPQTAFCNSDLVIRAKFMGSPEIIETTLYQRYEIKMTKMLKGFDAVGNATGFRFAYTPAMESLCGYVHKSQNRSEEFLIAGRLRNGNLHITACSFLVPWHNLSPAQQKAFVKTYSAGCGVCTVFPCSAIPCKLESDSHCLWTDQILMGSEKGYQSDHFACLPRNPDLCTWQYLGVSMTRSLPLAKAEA
As to B1, the “IC50 in rat protease assay” value was more than 300 nM.

For B2, the “IC50 in rat protease assay” value was determined as 19 nM.

As to B3, the “IC50 in rat protease assay” value is 20 nM.

B4: the “IC50 in rat protease assay” value amounted to 20 nM.

As for B5, the “IC50 in rat protease assay” value is more than 300 nM.

On to B6, for which the “IC50 in rat protease assay” value is more than 300 nM.

Turning to B7, the “IC50 in rat protease assay” value was 65 nM.

B8: the “IC50 in rat protease assay” value was more than 100 nM.

As for B9, the “IC50 in rat protease assay” value was approximately 30 nM.

For the molecule B10, the “IC50 in rat protease assay” value was more than 300 nM.

Turning to B11, the “IC50 in rat protease assay” value was approximately 200 nM.

As for B12, the “IC50 in rat protease assay” value was more than 300 nM.

Take B13: the “IC50 in rat protease assay” value was more than 300 nM.

Regarding B14, the “IC50 in rat protease assay” value is approximately 75 nM.

Turning to B15, the “IC50 in rat protease assay” value was more than 300 nM.

B16: the “IC50 in rat protease assay” value is more than 100 nM.

B17: the “IC50 in rat protease assay” value was more than 100 nM.

As to B18, the “IC50 in rat protease assay” value was more than 100 nM.

As for B19, the “IC50 in rat protease assay” value was more than 100 nM.

For B20, the “IC50 in rat protease assay” value was approximately 100 nM.

On to B21, for which the “IC50 in rat protease assay” value was more than 300 nM.

For a further assay, the target named is T1, rat TIMP-1. Nature of the assay: SPR (BIAcore), TIMP-1 coupled to chip, monovalent Fab. On the procedure:
For affinity determination, monomeric fractions of affinity and SEC purified Fab fragments or purified IgG1 molecules were used. All experiments were conducted in HBS buffer at a flow rate of 20 μl/min at 25° C. on a BIAcore™ instrument. Antigens in 100 mM sodium acetate pH 5.0 were coupled to a CM 5 sensor chip using standard EDC-NHS coupling chemistry. […] All sensograms were fitted globally using BIA evaluation software. For monovalent Fab fragments a monovalent fit (Langmuir binding) and for IgGs a bivalent fit was applied.
For the molecule B1, the Kd was approximately 256 nM.

B22 registered a Kd of approximately 210 nM.

For the molecule B2, the Kd was approximately 36 nM.

The molecule B3 showed a Kd of approximately 14 nM.

Turning to B4, the affinity, expressed as Kd, was 23 nM.

Consider B5, for which the Kd was approximately 419 nM.

In turn, B6 gave a dissociation constant Kd of approximately 207 nM.

B7 came in with a Kd of 35 nM.

B8 registered a Kd of approximately 92 nM.

As to B9, the Kd is approximately 200 nM.

B10 showed a Kd of approximately 200 nM.

With B11, the dissociation constant (Kd) is approximately 80 nM.

For B12, the Kd was approximately 70 nM.

Consider B13, for which the Kd was approximately 187 nM.

Turning to B14, the Kd is approximately 42 nM.

Take B23: the Kd is approximately 138 nM.

As to B15, the Kd is approximately 153 nM.

B16 returned a Kd of approximately 13 nM.

Molecule B17 came in with a Kd of approximately 36 nM.

Turning to B18, binding was characterised by a dissociation constant (Kd) of 10 nM. In other words, the double-digit nanomolar range.

With B19, the Kd was approximately 214 nM.

B20 showed a Kd of approximately 68 nM.

As for B24, the Kd is approximately 939 nM.

Consider B21, for which the Kd was approximately 168 nM.
